For one molecule, percent of the binding of Api5 to full length GST-ERα (1-595) results are on record in PMC5581047.

This assay concerns the target GST-ERα (179-312), C/D domains (UniProt P03372). Briefly: pull-down; GST-ERα domains or full length bound to glutathione-Sepharose 4B beads, incubated with recombinant Api5 protein; Western blot. A general note: In western blotting, separated proteins are transferred to a membrane and probed.

B1: Recombinant Api5 protein (natural protein)
chain: MPTVEELYRNYGILADATEQVGQHKDAYQVILDGVKGGTKEKRLAAQFIPKFFKHFPELADSAINAQLDLCEDEDVSIRRQAIKELPQFATGENLPRVADILTQLLQTDDSAEFNLVNNALLSIFKMDAKGTLGGLFSQILQGEDIVRERAIKFLSTKLKTLPDEVLTKEVEELILTESKKVLEDVTGEEFVLFMKILSGLKSLQTVSGRQQLVELVAEQADLEQTFNPSDPDCVDRLLQCTRQAVPLFSKNVHSTRFVTYFCEQVLPNLGTLTTPVEGLDIQLEVLKLLAEMSSFCGDMEKLETNLRKLFDKLLEYMPLPPEEAENGENAGNEEPKLQFSYVECLLYSFHQLGRKLPDFLTAKLNAEKLKDFKIRLQYFARGLQVYIRQLRLALQGKTGEALKTEENKIKVVALKITNNINVLIKDLFHIPPSYKSTVTLSWKPVQKVEIGQKRASEDTTSGSPPKKSSAGPKRDARQIYNPPSGKYSSNLGNFNYEQRGAFRGSRGGRGWGTRGNRSRGRLY
For the molecule B1, the percent of the binding of Api5 to full length GST-ERα (1-595) was above 60%.
